What was measured:
[1] = Plasma insulin levels by RIA method after injection or mouth spray in diabetic volunteers; format: in vivo, human
Description: (§1) Ten diabetic volunteers were asked to fast overnight and not have any breakfast prior to dosing. On the first day, the volunteers were given 10 units insulin by injection (regular fast acting insulin, obtained from Eli Lilly). On the second day, the volunteers were given 60 units insulin of this example (10 puffs of 6 units each) into the mouth, without inhalation. Plasma insulin levels were measured at intervals by the RIA method for 3 hours. Blood glucose levels were also monitored at intervals using Bayer's glucometer Elite for 3 hours.
(§2) Tests were also conducted with 40 units of spray at 10 puffs each, and compared to 10 units injected by measuring plasma levels and glucose levels as above. The results are shown in Table 7 (plasma) and 8 (glucose).
(§3) Ten diabetic volunteers were asked to fast overnight and not have any breakfast prior to dosing. On the first day, the volunteers were given 10 units insulin by injection. On the second day, the volunteers were given 60 units insulin of this example (10 puffs of 6 units each) into the mouth, without inhalation. Plasma insulin levels were measured at intervals by the RIA method for 3 hours. Blood glucose levels were also monitored at intervals using Bayer's glucometer Elite for 3 hours.
(§4) On the first day, each patient had 7 units regular fast acting insulin, obtained from Eli Lilly, administered by injection. On the second day, each patient was given 70 units of the insulin formulation of this Example (7 puffs of 10 unit each) into the mouth, without inhalation. Blood samples were collected and plasma glucose levels were measured at intervals using Bayer's glucometer Elite for 3 hours. Insulin levels were also monitored at intervals by the RIA method for 3 hours.

[2] = tested on: blood glucose levels; assay: Blood glucose levels by Bayer's glucometer Elite after injection or mouth spray in fasted diabetic volunteers; format: in vivo, human
Description: as §1, §2, §3, §4

[3] = time 0 min, insulin 10 units by injection, Example 2 60 units by mouth spray, average of ten fasted diabetic volunteers
[4] = time 0 min, insulin 10 units by injection, Example 3 60 units by mouth spray, average of ten fasted diabetic volunteers
[5] = time 0 min, insulin 10 units injected, Example 2 40 units of spray, measured as above
[6] = time 15 min, insulin 10 units by injection, Example 2 60 units by mouth spray, average of ten fasted diabetic volunteers
[7] = time 15 min, insulin 10 units by injection, Example 3 60 units by mouth spray, average of ten fasted diabetic volunteers
[8] = time 15 min, insulin 10 units injected, Example 2 40 units of spray, measured as above
[9] = time 30 min, insulin 10 units by injection, Example 2 60 units by mouth spray, average of ten fasted diabetic volunteers
[10] = time 30 min, insulin 10 units by injection, Example 3 60 units by mouth spray, average of ten fasted diabetic volunteers
[11] = time 30 min, insulin 10 units injected, Example 2 40 units of spray, measured as above
[12] = time 45 min, insulin 10 units by injection, Example 2 60 units by mouth spray, average of ten fasted diabetic volunteers
[13] = time 45 min, insulin 10 units by injection, Example 3 60 units by mouth spray, average of ten fasted diabetic volunteers
[14] = time 60 min, insulin 10 units by injection, Example 2 60 units by mouth spray, average of ten fasted diabetic volunteers
[15] = time 60 min, insulin 10 units by injection, Example 3 60 units by mouth spray, average of ten fasted diabetic volunteers
[16] = time 60 min, insulin 10 units injected, Example 2 40 units of spray, measured as above
[17] = time 90 min, insulin 10 units by injection, Example 2 60 units by mouth spray, average of ten fasted diabetic volunteers
[18] = time 90 min, insulin 10 units by injection, Example 3 60 units by mouth spray, average of ten fasted diabetic volunteers
[19] = time 90 min, insulin 10 units injected, Example 2 40 units of spray, measured as above
[20] = time 120 min, insulin 10 units by injection, Example 2 60 units by mouth spray, average of ten fasted diabetic volunteers
[21] = time 120 min, insulin 10 units by injection, Example 3 60 units by mouth spray, average of ten fasted diabetic volunteers
[22] = time 120 min, insulin 10 units injected, Example 2 40 units of spray, measured as above
[23] = time 150 min, insulin 10 units by injection, Example 2 60 units by mouth spray, average of ten fasted diabetic volunteers
[24] = time 150 min, insulin 10 units by injection, Example 3 60 units by mouth spray, average of ten fasted diabetic volunteers
[25] = time 150 min, insulin 10 units injected, Example 2 40 units of spray, measured as above
[26] = time 180 min, insulin 10 units by injection, Example 2 60 units by mouth spray, average of ten fasted diabetic volunteers
[27] = time 180 min, insulin 10 units by injection, Example 3 60 units by mouth spray, average of ten fasted diabetic volunteers
[28] = time 180 min, insulin 10 units injected, Example 2 40 units of spray, measured as above

With insulin the Plasma insulin level [1, 3] was 10 micromoles per ml, the Plasma insulin level [1, 4] was 9 micromoles per ml and the Plasma insulin level [1, 5] was 9 micromoles per ml. It also gave a Plasma insulin level [1, 6] of 9.1 micromoles per ml, a Plasma insulin level [1, 7] of 9.1 micromoles per ml and a Plasma insulin level [1, 8] of 9 micromoles per ml. The Plasma insulin level [1, 9] was 11 micromoles per ml, the Plasma insulin level [1, 10] was 14 micromoles per ml and the Plasma insulin level [1, 11] was 13 micromoles per ml. The Plasma insulin level [1, 12] was 16 micromoles per ml, the Plasma insulin level [1, 13] was 20 micromoles per ml and the Plasma insulin level ([1]; time 45 min, insulin 10 units injected, Example 2 40 units of spray, measured as above) was 19 micromoles per ml. It also gave a Plasma insulin level [1, 14] of 31 micromoles per ml, a Plasma insulin level [1, 15] of 40 micromoles per ml and a Plasma insulin level [1, 16] of 34 micromoles per ml. The Plasma insulin level [1, 17] was 45 micromoles per ml, the Plasma insulin level [1, 18] was 48 micromoles per ml and the Plasma insulin level [1, 19] was 45 micromoles per ml. For the same substance, the Plasma insulin level [1, 20] was 32 micromoles per ml, the Plasma insulin level [1, 21] was 39 micromoles per ml and the Plasma insulin level [1, 22] was 42 micromoles per ml. The Plasma insulin level [1, 23] was 25 micromoles per ml, the Plasma insulin level [1, 24] was 34 micromoles per ml and the Plasma insulin level [1, 25] was 35 micromoles per ml. The Plasma insulin level [1, 26] was 20 micromoles per ml, the Plasma insulin level [1, 27] was 27 micromoles per ml and the Plasma insulin level [1, 28] was 24 micromoles per ml. For the same substance, the Blood glucose level [2, 3] was 6.1 millimoles per liter, the Blood glucose level [2, 4] was 6.6 millimoles per liter and the Blood glucose level [2, 5] was 5.8 millimoles per liter. It also gave a Blood glucose level [2, 6] of 6.0 millimoles per liter, a Blood glucose level [2, 7] of 6.5 millimoles per liter and a Blood glucose level [2, 8] of 6.0 millimoles per liter. It also gave a Blood glucose level [2, 9] of 5.9 millimoles per liter, a Blood glucose level [2, 10] of 6.1 millimoles per liter and a Blood glucose level [2, 11] of 5.9 millimoles per liter. The Blood glucose level [2, 12] was 5.5 millimoles per liter, the Blood glucose level [2, 13] was 5.5 millimoles per liter and the Blood glucose level [2, 14] was 5.1 millimoles per liter. The Blood glucose level [2, 15] was 4.9 millimoles per liter, the Blood glucose level [2, 16] was 5.5 millimoles per liter and the Blood glucose level [2, 17] was 4.5 millimoles per liter. The Blood glucose level [2, 18] was 4.5 millimoles per liter, the Blood glucose level [2, 19] was 5.0 millimoles per liter and the Blood glucose level [2, 20] was 3.8 millimoles per liter. For the same substance, the Blood glucose level [2, 21] was 3.8 millimoles per liter, the Blood glucose level [2, 22] was 4.5 millimoles per liter and the Blood glucose level [2, 23] was 4.2 millimoles per liter. It also gave a Blood glucose level [2, 24] of 3.5 millimoles per liter, a Blood glucose level [2, 25] of 4.1 millimoles per liter and a Blood glucose level [2, 26] of 4.4 millimoles per liter. It also gave a Blood glucose level [2, 27] of 4.4 millimoles per liter and a Blood glucose level [2, 28] of 3.9 millimoles per liter.

Reference: US7087215B2 (priority 1998, dated 2006)
